From US20070189962A1 (GOV OF US AS REPRESENTED BY THE SEC OF HEALTH, published 2007)
Where a chain is given by its changes, count along the chain named.

Columns and labels:
CD22 (human) = CD22 (human) (UniProt P20273); assay: cell-based or functional assay
mesothelin = mesothelin (UniProt Q13421); assay: cell-based or functional assay
CD22 [1] = target: T1, CD22 (human, UniProt P20273 20-847); assay: monoclonal phage FACS on Daudi cells
T1 construct: whole, on cells; also called native CD22(αβ) on Daudi cells; CD22 antigen
T1 sequence (looked up): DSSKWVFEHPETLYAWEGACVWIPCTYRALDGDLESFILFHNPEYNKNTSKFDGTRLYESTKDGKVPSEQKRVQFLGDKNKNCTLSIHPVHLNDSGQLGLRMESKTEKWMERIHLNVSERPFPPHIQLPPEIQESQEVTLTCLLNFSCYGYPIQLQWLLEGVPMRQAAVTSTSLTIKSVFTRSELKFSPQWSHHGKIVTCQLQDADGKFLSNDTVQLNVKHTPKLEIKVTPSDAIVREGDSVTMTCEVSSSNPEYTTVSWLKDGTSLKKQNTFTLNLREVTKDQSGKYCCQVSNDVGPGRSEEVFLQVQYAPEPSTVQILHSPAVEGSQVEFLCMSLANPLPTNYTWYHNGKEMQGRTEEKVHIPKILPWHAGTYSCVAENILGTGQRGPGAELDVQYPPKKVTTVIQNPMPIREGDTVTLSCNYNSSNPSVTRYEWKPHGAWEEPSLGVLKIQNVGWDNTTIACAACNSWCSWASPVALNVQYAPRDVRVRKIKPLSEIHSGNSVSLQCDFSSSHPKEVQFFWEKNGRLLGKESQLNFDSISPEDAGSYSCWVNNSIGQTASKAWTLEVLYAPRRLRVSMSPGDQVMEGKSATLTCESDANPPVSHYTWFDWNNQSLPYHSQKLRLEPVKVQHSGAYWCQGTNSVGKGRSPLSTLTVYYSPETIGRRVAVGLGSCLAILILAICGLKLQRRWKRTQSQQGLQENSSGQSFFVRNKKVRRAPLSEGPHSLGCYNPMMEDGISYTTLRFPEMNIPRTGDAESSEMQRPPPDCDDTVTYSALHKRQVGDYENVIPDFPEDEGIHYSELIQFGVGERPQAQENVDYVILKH

CD22 [2] = target: T1, CD22; assay: monoclonal phage FACS on Daudi cells; HA22 is the reference that the mutants exceed

mesothelin, sequence (Q13421 other isoform, or with tags, fused parts or gaps limits assumed): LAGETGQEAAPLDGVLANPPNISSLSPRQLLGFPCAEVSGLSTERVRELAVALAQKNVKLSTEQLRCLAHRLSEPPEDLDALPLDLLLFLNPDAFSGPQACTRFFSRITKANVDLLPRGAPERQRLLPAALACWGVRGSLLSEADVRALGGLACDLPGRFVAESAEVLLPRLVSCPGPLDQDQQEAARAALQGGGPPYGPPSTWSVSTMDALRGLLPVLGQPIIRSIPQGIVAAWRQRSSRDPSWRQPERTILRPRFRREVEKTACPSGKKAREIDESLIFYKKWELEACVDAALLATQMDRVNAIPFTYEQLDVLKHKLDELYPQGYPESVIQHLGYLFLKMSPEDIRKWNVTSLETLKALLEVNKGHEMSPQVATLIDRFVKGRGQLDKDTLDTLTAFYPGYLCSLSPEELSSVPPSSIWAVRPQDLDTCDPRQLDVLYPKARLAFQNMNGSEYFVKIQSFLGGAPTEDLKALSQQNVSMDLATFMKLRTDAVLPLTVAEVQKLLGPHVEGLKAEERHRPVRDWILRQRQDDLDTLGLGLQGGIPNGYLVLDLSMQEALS

Molecule: RFB4 (dsFv)-PE38
- Cytotoxicity activity (IC50), protein synthesis inhibition, Daudi (CD22 (human)): 2.8 ng/mL
- Cytotoxicity activity (IC50), protein synthesis inhibition, Raji (CD22 (human)): 2.5 ng/mL

Molecule: SS1P (R490A)
- IC50, inhibition of protein synthesis, A431/K5 (mesothelin): 0.45 ng/mL
- IC50, inhibition of protein synthesis, A1847 (mesothelin): 1.5 ng/mL

Molecule: SS1P
- IC50, inhibition of protein synthesis, A431/K5 (mesothelin): 0.7 ng/mL
- IC50, inhibition of protein synthesis, A1847 (mesothelin): 4 ng/mL

Molecule: HA22 RFB4 (scFv)-PE38 immunotoxin
- Cytotoxic Activity (IC50), Daudi (30 min incubation) (CD22 (human)): 5.6 ng/mL
- Cytotoxic Activity (IC50), Daudi, 16 hr, protein synthesis (CD22 (human)): 0.52 ng/mL
- Cytotoxic Activity (IC50), Namalwa (CD22 (human)): 1.2 ng/mL
- Cytotoxic Activity (IC50), Ramos (CD22 (human)): 4.9 ng/mL

Molecule: HA22 (R490A)
- Cytotoxicity activity (IC50), protein synthesis inhibition, Daudi (CD22 (human)): 0.2 ng/mL
- Cytotoxicity activity (IC50), protein synthesis inhibition, Raji (CD22 (human)): 0.3 ng/mL

B1: B5 (scFv displayed on phage) (scFv, V domains shown)
VH: EVQLVESGGGLVKPGGSLKLSCAASGFAFSIYDMSWVRQTPEKRLEWVAYISSGGGTTYYPDTVKGRFTISRDNAKNTLYLQMSSLKSEDTAMYYCARHSGYGTHWGVLFAYWGQGTLVTVSA
VL: DIQMTQTTSSLSASLGDRVTISCRASQDIHGYLNWYQQKPDGTVKLLIYYTSILHSGVPSRFSGSGSGTDYSLTISNLEQEDFATYFCQQGNTLPWTFGGGTKLEIK
notes: also called mutant B5; L-CDR1 HG mutant of HA22
- binding result (CD22 [1]): binds

B2: B8 (scFv displayed on phage) (scFv, V domains shown)
VH: B1 VH
VL: B1 VL with H30R
notes: also called L-CDR1 RG mutant of HA22
- binding result (CD22 [1]): binds

B3: E6 (scFv displayed on phage) (scFv, V domains shown)
VH: B1 VH
VL: B1 VL with H30G, G31R
notes: also called L-CDR1 GR mutant of HA22
- binding result (CD22 [1]): binds

B4: HA22 (scFv displayed on phage) (scFv, V domains shown)
VH: B1 VH
VL: B1 VL with H30S, G31N
notes: also called starting molecule; RFB4 with SSY of H-CDR3 mutated to THW
- binding result (CD22 [2]): binds

B5: D8 (scFv displayed on phage) (scFv, V domains shown)
VH: B1 VH
VL: B1 VL with H30A, G31R
notes: also called L-CDR1 AR mutant of HA22
- binding result (CD22 [1]): binds
